Measurements as given in patent US20150072933A1, “NOVEL SEQUENCES FOR THE CONTROL OF REPRODUCTION IN FISH” (Yissum Research Development Company of the Hebrew …, priority 2011, published 2015).
“Also recorded” adds a separate entry of the source. *1 amine or outer side, *2 acyl side, *3 side chain or, on linkers, in order; H or OH if unused. Where a SMILES comes first, the peptide text is derived from it. Where no end group is shown, it is not given here. [ ]: non-standard residue; d: D form. Suc = O=C(CCC(=O)[*:2])[*:1]; NMeV = CN[C@H](C(=O)O)C(C)C

T1: human NK3R (human NKB receptor) (human, UniProt P29371 1-465)
T1 sequence (looked up): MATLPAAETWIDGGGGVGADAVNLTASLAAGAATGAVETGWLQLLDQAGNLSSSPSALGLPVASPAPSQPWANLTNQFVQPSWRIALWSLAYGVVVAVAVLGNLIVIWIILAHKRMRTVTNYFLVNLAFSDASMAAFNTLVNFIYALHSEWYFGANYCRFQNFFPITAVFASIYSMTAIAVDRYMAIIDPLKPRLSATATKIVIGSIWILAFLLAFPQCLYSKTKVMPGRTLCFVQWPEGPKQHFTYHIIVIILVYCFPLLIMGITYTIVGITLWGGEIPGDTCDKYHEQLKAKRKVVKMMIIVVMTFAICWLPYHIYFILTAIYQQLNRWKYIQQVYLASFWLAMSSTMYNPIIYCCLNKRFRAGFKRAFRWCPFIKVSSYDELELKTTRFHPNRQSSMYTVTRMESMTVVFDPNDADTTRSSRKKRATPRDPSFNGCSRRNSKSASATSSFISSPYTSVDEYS

T2: zebrafish Tac3rb (tac3 receptor b, NKB receptor) (zebrafish)
T2 chain: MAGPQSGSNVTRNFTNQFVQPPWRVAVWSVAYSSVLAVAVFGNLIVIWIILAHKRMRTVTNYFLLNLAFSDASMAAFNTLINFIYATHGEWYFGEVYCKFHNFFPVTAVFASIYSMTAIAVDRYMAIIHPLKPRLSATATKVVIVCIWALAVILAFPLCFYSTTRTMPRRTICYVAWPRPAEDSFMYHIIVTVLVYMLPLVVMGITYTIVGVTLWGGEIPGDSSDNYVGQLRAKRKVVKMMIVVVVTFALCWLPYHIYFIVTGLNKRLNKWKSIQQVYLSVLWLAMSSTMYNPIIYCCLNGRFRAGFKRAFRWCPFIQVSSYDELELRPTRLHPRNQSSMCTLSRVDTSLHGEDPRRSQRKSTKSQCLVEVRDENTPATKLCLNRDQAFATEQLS

T3: zebrafish Tac3ra (tac3 receptor a, NKB receptor) (zebrafish)
T3 chain: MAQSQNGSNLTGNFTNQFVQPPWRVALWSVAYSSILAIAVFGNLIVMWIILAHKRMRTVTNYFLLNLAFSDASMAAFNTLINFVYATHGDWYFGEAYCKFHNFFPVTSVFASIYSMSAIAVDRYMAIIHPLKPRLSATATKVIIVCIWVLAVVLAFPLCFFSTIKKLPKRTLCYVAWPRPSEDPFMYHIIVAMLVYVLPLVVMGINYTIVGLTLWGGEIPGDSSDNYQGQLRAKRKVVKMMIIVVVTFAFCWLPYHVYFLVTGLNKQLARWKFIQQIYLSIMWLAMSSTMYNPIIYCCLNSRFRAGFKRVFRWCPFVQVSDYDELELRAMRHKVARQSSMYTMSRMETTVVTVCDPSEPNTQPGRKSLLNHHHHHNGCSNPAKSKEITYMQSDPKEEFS


Assays:
zfTac3ra [1] = assay: Receptor transactivation assay, SRE-Luc reporter (PKC activation), COS-7 cells expressing zfTac3ra; format: cell-based, zebrafish; details: Table 7 (native peptides and analogues); PKC activation; mean ± SEM; read-out: EC50 using SRE, zfTac3ra
Protocol: (§1) In order to study the signaling pathways of the novel zebrafish NKBs, the entire coding regions of zftac3ra (denoted by SEQ ID NO:6) or zftac3rb (denoted by SEQ ID NO:7), or the cDNA clone for human NK3R (obtained from the Missouri S&T cDNA Resource Center, were inserted into pcDNA3.1 (Invitrogen). The luciferase assay was conducted according to Biran et al., 2008 [4] COS-7 cells were grown in DMEM supplemented with 10% FBS, 1% glutamine, 100 U/ml penicillin, and […] streptomycin (Biological Industries) under 5% CO2 until confluent. Cotransfection of either pc-zftac3ra, pc-zftac3rb or pc-Htac3r (at 3 μg/plate), a reporter plasmid (at 2 μg/plate), and pCMV-β-galactosidase (at 1 μg/plate) was carried out with FuGENE 6.0 reagent (Roche). The cells were serum starved for 36 h, stimulated with vehicle or various concentrations of either human (Sigma) or zebrafish NKBs for 6 h, and then harvested and analyzed. Lysates prepared from the harvested cells were assayed for both luciferase activity and β-galactosidase activity, which was used as an internal standard to normalize the luciferase activity directed by the test plasmid. Transfection experiments were performed in triplicate with three independently isolated sets. Protein structure prediction of zebrafish NKBa, NKBb or NKF were performed on I-Tasser servers.
(§2) The response, binding selectivity and signal transduction pathways of the novel tachykinin receptors to their agonists were evaluated by functional expression analysis, using COS-7 cells.
(§3) The NKB analogues (i.e. the NKBa-analog, NKBb-analog and NKF-analog, as denoted by SEQ ID NO. 44-46) were first analyzed in comparison to their native forms in a transactivation assay, using reporter genes for specific signal transduction pathways. To validate the specificity of the serum-responsive element (SRE)-Luc and cAMP-responsive element (CRE)-Luc reporter systems, specific activators for PLC/PKC and AC/PKA signaling pathways were used in control experiments.
(§4) Thus, the ability of the three novel piscine peptides (namely, NKBa, NKBb and NKF, denoted by SEQ ID NO.40, 41 and 42), as well as the ability of the three analogous agonistic peptides, namely, NKBa-analog, NKBb-analog and NKF-analog, to differentially activate the different tac3 receptors, using SRE as a reporter gene that follows PKC activation and CRE as a reporter gene for the PKA pathway, was tested. Human NK3R (human NKB receptor) and human NKB served as controls.

zfTac3rb [2] = assay: Receptor transactivation assay, SRE-Luc reporter (PKC activation), COS-7 cells expressing zfTac3rb; format: cell-based, zebrafish; details: Table 7 (native peptides and analogues); PKC activation; mean ± SEM; read-out: EC50 using SRE, zfTac3rb
Protocol: as §1, §2, §3, §4

zfTac3ra [3] = assay: Receptor transactivation assay, CRE-Luc reporter (PKA activation), COS-7 cells expressing zfTac3ra; format: cell-based, zebrafish; details: Table 6 (native peptides and analogues), PKA activation, mean ± SEM, read-out: EC50 using CRE-Luc, zfTac3ra
Protocol: as §1, §2, §3, §4

Mature female carp = assay: Gonadotropin release from mature carp in vivo (LH by ELISA); details: mature female carp just before spawning, injected 20 μg/kg body weight; listed as NKBb analogue
Protocol: Mature female carp, just before spawning, were injected with NKBa, NKBb and NKF analogues, denoted by SEQ ID NO.44, SEQ ID NO.45 and SEQ ID NO.46, respectively (20 μg/kg body weight). LH levels was measured by specific ELISA, according to Aizen et al. 2012 [33].

zfTac3rb [4] = assay: Receptor transactivation assay, CRE-Luc reporter (PKA activation), COS-7 cells expressing zfTac3rb; format: cell-based, zebrafish; details: Table 6 (native peptides and analogues), PKA activation, mean ± SEM, read-out: EC50 using CRE-Luc, zfTac3rb
Protocol: as §1, §2, §3, §4

[5] = target: T1, human NK3R (human NKB receptor); assay: cell-based or functional assay
[6] = target: T2, zebrafish Tac3rb (tac3 receptor b, NKB …); assay: cell-based or functional assay
[7] = target: T3, zebrafish Tac3ra (tac3 receptor a, NKB …); assay: cell-based or functional assay
[8] = target: T1, human NK3R (human NKB receptor); assay: cell-based or functional assay; remark: listed apart in the source
[9] = target: T2, zebrafish Tac3rb (tac3 receptor b, NKB …); assay: cell-based or functional assay
[10] = target: T3, zebrafish Tac3ra (tac3 receptor a, NKB …); assay: cell-based or functional assay
[11] = target: T1, human NK3R (human NKB receptor); assay: cell-based or functional assay; remark: listed apart in the source
[12] = target: T2, zebrafish Tac3rb (tac3 receptor b, NKB …); assay: cell-based or functional assay
[13] = target: T3, zebrafish Tac3ra (tac3 receptor a, NKB …); assay: cell-based or functional assay

Row | EC50 (zfTac3ra [1]) [nM] | EC50 (zfTac3rb [2]) [nM] | EC50 (zfTac3ra [3]; listed as NKBb-analog) [nM] | EC50 (zfTac3ra [3]) [nM] | EC50 (zfTac3rb [4]; listed as NKBb-analog) [nM] | EC50 (zfTac3rb [4]) [nM] | EC50, SRE reporter gene that follows PKC activation, transfected COS-7 cells [5] [nM] | EC50, SRE reporter gene that follows PKC activation, transfected COS-7 cells [6] [nM] | EC50, SRE reporter gene that follows PKC activation, transfected COS-7 cells [7] [nM] | EC50, CRE-Luc reporter (PKA activation), transfected COS-7 cells [8] [nM] | EC50, SRE-Luc reporter (PKC activation), transfected COS-7 cells [8] [nM] | EC50, CRE-Luc reporter (PKA activation), transfected COS-7 cells [9] [nM] | EC50, SRE-Luc reporter (PKC activation), transfected COS-7 cells [9] [nM] | EC50, CRE-Luc reporter (PKA activation), transfected COS-7 cells [10] [nM] | EC50, SRE-Luc reporter (PKC activation), transfected COS-7 cells [10] [nM] | EC50, CRE-Luc to follow PKA activation, transfected COS-7 cells [11] [nM] | EC50, CRE-Luc to follow PKA activation, transfected COS-7 cells [12] [nM] | EC50, CRE-Luc to follow PKA activation, transfected COS-7 cells [13] [nM] | Molecule | LH level (Mature female carp)
1 | 0.06 | 0.23 | 1.7 | 1.68 ± 1.21 | 2.2 | 2.18 ± 1.34 |  |  |  |  |  |  |  |  |  |  |  |  | CSCC[C@H](NC(=O)[C@H](CC(C)C)NC(=O)CNC(=O)[C@H](C(C)C)N(C)C(=O)[C@H](Cc1ccccc1)NC(=O)[C@H](CC(=O)O)NC(=O)CCC(=O)O)C(N)=O [zfNKBb-analog, Succ-Asp-Phe-N(Me)Val-Gly-Leu-Met-NH2] (Suc-DF[NMeV]GLM-NH2) | significant elevation; also recorded: increased the level of LH significantly
2 |  |  |  |  |  |  | 204 | 15.3 | 6.06 | 605 | 204 | 519 | 33.8 | 237 | 8.96 | 336 | 191 | 99.6 | STGINREAHLPFRPNMNDIFVGLL-NH2 [Zebrafish Tac3b peptide, neurokinin Bb (STGINREAHLPFRPNMNDIFVGLL-NH2)] | 
3 |  |  |  |  |  |  | 0.52 | 0.37 | 0.55 | 4.36 | 0.52 | 1.8 | 0.36 | 4.94 | 0.54 | 4.36 | 1.8 | 4.94 | YNDIDYDSFVGLM-NH2 [Zebrafish Tac3f peptide, neurokinin F (YNDIDYDSFVGLM-NH2)] | 
